The assay deals with T1, Recombinant rat brain calmodulin (rat, UniProt P0DP29 1-149).
T1 construct: calmodulin, rat, recombinant; also called CaM; source: E. coli BL21 DE3, purified
Put plainly: pull-down; purified GST fusion proteins immobilised on GSH-Sepharose 4B beads; CaM (10 μg) added, 45 min, room temperature; 25 mM Hepes, 120 mM KCl, 5 mM NaCl, pH 7.5 with 5 mM EGTA (10 mM in the results text), no Ca2+; anti-CaM Western blot, band intensities quantified (n = 3). As to conditions: both partners purified. (Immunoblotting shows a protein as a band on a membrane.)

We go through one molecule from PMC6161613, “Lack of correlation between surface expression and currents in epileptogenic AB-calmodulin binding domain Kv7.2 potassium channel mutants” (Channels, 2018).

B1: GST-neurogranin (aa 1-78) (natural protein)
chain: MDCCTENACSKPDDDILDIPLDDPGANAAAAKIQASFRGHMARKKIKSGERGRKGPGPGGPGGAGVARGGAGGGPSGD
notes: neurogranin, aa 1-78, entry NP006167 as printed; also called Nrg; source: E. coli BL21 DE3, purified (GST fusion from pGEX-3X)
For the molecule B1, the binding result is “binds”.
